Consider 1 substance from paper PMC11289882, “Site-directed allostery perturbation to probe the negative regulation of hypoxia inducible factor-1α” (RSC Chemical Biology, 2024).

Test [1] has as its target Flu-HIF-1α 786-826 (Homo sapiens) (UniProt Q16665). Briefly: anisotropy.
For test [2], the target named is CITED2ΔN 224-256 (Homo sapiens) (UniProt Q99967). Briefly: fluorescence anisotropy competition. (Fluorescence polarisation rises when a labelled molecule tumbles more slowly, as on binding a larger partner.)
Sequence of CITED2ΔN 224-256 (Homo sapiens) (Q99967 224-256, stated change not applied): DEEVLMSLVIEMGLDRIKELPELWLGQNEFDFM
Test [3] addresses CITED2 218-256 218-256 (Homo sapiens) (UniProt Q99967). Briefly: fluorescence anisotropy competition.
Test [4] deals with CITED2ΔN 224-256 (Homo sapiens) (UniProt Q99967). Briefly: ITC. On the technique in general: In ITC the heat of successive injections is recorded.
In test [5] the target is CITED2 218-256 218-256 (Homo sapiens) (UniProt Q99967). The experiment in a line: ITC.
Sequence of CITED2 218-256 218-256 (Homo sapiens) (Q99967 218-256): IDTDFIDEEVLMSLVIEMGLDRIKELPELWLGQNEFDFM

Broadly, the Kd is the free concentration of one partner at which half of the binding sites on the other are occupied at equilibrium, for simple one-to-one binding. Read a low Kd as a tighter complex.

Sequence of p300 TAZ1 330-420, Q09472 (Q09472 330-420): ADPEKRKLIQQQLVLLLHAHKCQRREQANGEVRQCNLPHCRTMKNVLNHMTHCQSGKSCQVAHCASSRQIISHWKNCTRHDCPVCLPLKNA
Sequence of Flu-HIF-1α 786-826 (Homo sapiens) (Q16665 786-826): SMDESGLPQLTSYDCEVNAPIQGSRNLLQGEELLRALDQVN

On to p300 TAZ1 330-420, Q09472, for which the Kd amounted to 64 nM in test [1]; 86 nM in test [2]; 2 nM in test [3]; 50.5 nM in test [4]; 10.6 nM in test [5].
